Bounds are passed on as bounds.

Data on 4 molecules can be found in US6544753 (MERCK, dated 2003).

Sequences and labels used below:
T1: human GALR2 (human, UniProt O43603 1-387)
T1 sequence: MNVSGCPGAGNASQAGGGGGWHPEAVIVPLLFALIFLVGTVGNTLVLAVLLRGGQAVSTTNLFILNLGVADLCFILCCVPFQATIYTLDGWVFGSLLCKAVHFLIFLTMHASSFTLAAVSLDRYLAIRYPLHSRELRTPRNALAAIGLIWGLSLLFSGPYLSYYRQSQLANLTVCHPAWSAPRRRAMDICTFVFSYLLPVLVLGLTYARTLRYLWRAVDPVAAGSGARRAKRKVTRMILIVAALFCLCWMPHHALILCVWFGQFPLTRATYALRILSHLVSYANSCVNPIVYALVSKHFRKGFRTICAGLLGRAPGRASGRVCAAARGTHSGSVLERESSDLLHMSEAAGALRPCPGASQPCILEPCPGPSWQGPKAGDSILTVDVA

This test addresses T1, human GALR2. Nature of the test: cell-based or functional assay.
Molecule M40 (peptide) yielded an aequorin bioluminescence in 293-AEQ17 cells, EC50 of 8.8 nM.
Next, M35 (peptide): 44 nM.
Next, WTLNSAGYLLGPHAIDNHRSFSDKHGLT (peptide, UniProt P10683 34-61, looked up) [rat Gal(2-29)]: 31 nM; TLNSAGYLLGPHAIDNHRSFSDKHGLT (peptide, UniProt P10683 35-61, looked up) [rat Gal (3-29)]: above 10000 nM.
